Target: RelJ antitoxin (recombinant His-tagged) (M. tuberculosis) (UniProt P9WF24)
Experiment: native gel or EMSA

Sequence of UniProt P9WF24 (P9WF24 whole entry): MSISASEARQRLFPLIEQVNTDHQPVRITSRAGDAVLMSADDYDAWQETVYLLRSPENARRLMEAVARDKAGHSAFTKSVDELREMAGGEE

RelK toxin (recombinant His-tagged, unphosphorylated) (from UniProt P9WF08 2-85) (natural protein)
stoichiometry N (RelK per RelJ): 1
